Results taken from patent US20240158497A1 (published 2024).

T1: Macaca Fascicularis GP130 extracellular domain expressed with a C-terminal myc-myc-hexahistidine tag (Macaca fascicularis, UniProt P40189 23-619 (human entry))
T1 construct: also called mfGP130-MMH; mfGP130-mmH
T1 chain: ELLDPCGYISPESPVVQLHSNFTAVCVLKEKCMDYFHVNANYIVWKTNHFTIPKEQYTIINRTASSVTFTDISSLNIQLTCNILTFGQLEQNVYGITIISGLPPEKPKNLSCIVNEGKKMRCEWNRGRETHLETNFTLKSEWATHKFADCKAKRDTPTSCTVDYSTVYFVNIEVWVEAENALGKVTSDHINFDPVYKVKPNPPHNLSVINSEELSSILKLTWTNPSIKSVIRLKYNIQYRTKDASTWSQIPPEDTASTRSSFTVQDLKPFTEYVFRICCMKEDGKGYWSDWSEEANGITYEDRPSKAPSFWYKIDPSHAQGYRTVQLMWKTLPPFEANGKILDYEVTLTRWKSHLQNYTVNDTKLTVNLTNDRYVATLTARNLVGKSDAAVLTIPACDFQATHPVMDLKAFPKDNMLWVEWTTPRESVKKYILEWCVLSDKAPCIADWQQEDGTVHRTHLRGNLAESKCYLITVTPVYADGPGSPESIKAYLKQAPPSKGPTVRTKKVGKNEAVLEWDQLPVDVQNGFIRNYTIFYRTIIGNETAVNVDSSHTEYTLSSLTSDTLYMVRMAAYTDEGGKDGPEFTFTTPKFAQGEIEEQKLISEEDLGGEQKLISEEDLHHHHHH

T2: extracellular domain of human LEPR, GPI-anchored, on HEK293/hLEPR-GPI cells (human, UniProt P48357 22-839, GPI anchor at the C-terminus ; GPI anchor at the C-terminus, added through the carboxypeptidase M signal peptide. The N-terminal myc-myc tag is not written.)
T2 sequence: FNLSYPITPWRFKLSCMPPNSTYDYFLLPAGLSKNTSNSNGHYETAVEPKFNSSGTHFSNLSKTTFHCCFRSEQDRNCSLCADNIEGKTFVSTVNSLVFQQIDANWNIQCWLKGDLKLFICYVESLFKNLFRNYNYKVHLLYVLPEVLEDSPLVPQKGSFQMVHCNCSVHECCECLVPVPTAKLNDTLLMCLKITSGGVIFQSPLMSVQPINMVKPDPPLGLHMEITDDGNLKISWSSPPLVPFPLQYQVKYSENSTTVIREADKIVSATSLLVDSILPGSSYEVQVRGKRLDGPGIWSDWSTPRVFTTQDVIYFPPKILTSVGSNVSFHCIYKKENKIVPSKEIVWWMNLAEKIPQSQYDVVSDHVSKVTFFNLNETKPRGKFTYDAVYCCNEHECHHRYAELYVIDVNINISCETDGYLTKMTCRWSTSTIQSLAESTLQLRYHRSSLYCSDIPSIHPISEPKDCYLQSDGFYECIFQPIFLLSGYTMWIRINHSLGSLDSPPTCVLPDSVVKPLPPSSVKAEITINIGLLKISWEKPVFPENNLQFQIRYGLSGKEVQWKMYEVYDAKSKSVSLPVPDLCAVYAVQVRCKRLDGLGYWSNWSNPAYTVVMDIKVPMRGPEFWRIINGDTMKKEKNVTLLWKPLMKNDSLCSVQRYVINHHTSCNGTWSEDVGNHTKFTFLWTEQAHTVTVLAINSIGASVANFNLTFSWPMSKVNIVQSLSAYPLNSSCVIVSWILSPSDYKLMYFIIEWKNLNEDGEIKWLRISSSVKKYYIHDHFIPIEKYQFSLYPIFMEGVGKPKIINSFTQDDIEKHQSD


Key:
[1] = molecular target: T3, human GP130 extracellular domain expressed with a C-terminal myc-myc-hexahistidine tag (human, UniProt P40189 23-619); assay: SPR, bsAb captured by anti-hFc, 37C
T3 construct: also called hGP130-MMH; hGP130-mmH
How it was run: (§1)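 Anti-hFc-captured bispecific antibodies received 3-fold serial dilutions of LEPR or GP130 (100 nM–3.7 nM) in HBS-ET, pH 7.4, injected for 4 min with 10 min dissociation at 25 °C or 37 °C. ka and kd came from a 1:1 binding model with mass transport limitation, and KD and t½ were calculated from these rate constants.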

[2] = molecular target: T1, Macaca Fascicularis GP130 extracellular …; assay: SPR, bsAb captured by anti-hFc, 37C
How it was run: as §1

[3] = molecular target: T2, extracellular domain of human LEPR, …; assay: FACS, 200 nM antibody on HEK293/hLEPR-GPI cells, no Leptin
Experimental: (§2) For the FACS analysis, 0.5×10^6 cells/well of HEK293 parental cells, HEK293/Stat3-luc/gp130-2 X Sort cells, and HEK293/hLEPR-GPI cells, were incubated with 200 nM of the conventional antibodies against either GP130 or LEPR or with LEPRxGP130 bispecific antibodies, along with isotype control antibodies at 4° C. in PBS (without calcium and magnesium) containing 2% FBS.
(§3) Cells were fixed using BD CytoFix™ (Becton Dickinson, #554655) and analyzed on an IQue® (Intellicyt) Flow Cytometer. Unstained and secondary antibody alone controls were also tested for all cell lines. The results were analyzed using ForeCyt® (IntelliCyt) and FlowJo version 10 softwares to determine the geometric means of fluorescence for viable cells.

[4] = molecular target: T2, extracellular domain of human LEPR, …; assay: FACS, 200 nM antibody on HEK293/hLEPR-GPI cells, 1 µM Leptin
Experimental: as §2, §3

| Binder | 100 nM hGP130-MMH Bound (RU) [1] [RU] | Kd [1] [nM] | koff [1] [s⁻¹] | kon [1] [M⁻¹ s⁻¹] | t½ [1] [min] | 100 nM mfGP130-MMH Bound (RU) [2] [RU] | Kd [2] [nM] | koff [2] [s⁻¹] | kon [2] [M⁻¹ s⁻¹] | t½ [2] [min] | Binding Ratio, normalized to unstained sample (FL4-A) [3] [fold] | Binding Ratio, normalized to unstained sample (FL4-A) [4] [fold] |
| --- | --- | --- | --- | --- | --- | --- | --- | --- | --- | --- | --- | --- |
| bsAb21236D (bispecific antibody, V domains shown, LEPR x GP130 bispecific with common light chain; also called H4H21236D; bsAb21236 (LEPR × GP130)) VH 1: QVQLQESGPGLVKPSQTLSLTCTVSGGSISSGGDYWSWIRQLPGKGLEWIGYIYYSGSAYYNPSLKSRGTISIDTSKNQFSLKLTSVTAADTAVYFCVKLRFLEWFLGGWFGPWGQGTLVTVSS VH 2: QVQLVESGGGLVKPGGSLRLSCAASGFTFSDYYMTWIRQTPGKGLDWVSYISSSGTNKYNADSVKGRFTISRDNAKNSLYLQMNSLRAEDTAVYYCVRDPPWGMDVWGQGTTVTVSS VL: not shown | 12 | 248 | 0.0148 | 59700 | 0.8 | 18 | 179 | 0.0125 | 69800 | 0.9 | 4420 | 3600 |
| bsAb21237D (bispecific antibody, V domains shown, LEPR x GP130 bispecific with common light chain; also called H4H21237D; bsAb21237 (LEPR × GP130)) VH 1: EVQLVESGGGLVQPGGSLRLSCAASGFTFSNYGMTWVRQAPGKGLEWVSAITGGGGSTYYSNSVKGRFTISRDNSKNTVYLRMNSVRAEDTAVYYCAKYKWNFVDDWGQGTTVTVSS VH 2: QVQLVESGGGLVKPGGSLRLSCAASGFTFSDYYMTWIRQTPGKGLDWVSYISSSGTNKYNADSVKGRFTISRDNAKNSLYLQMNSLRAEDTAVYYCVRDPPWGMDVWGQGTTVTVSS VL: not shown | 19 | 144 | 0.00879 | 61100 | 1.3 | 21 | 215 | 0.00792 | 36900 | 1.5 | 6320 | 5930 |
